Data on four molecules can be found in patent US20140087995A1 (published 2014).

Numbered stars: 1 amine (or outer) side, 2 acyl side, 3 side chain; on linkers, the order of the positions; unused ones are H or OH. Bridge positions count the residues as written; N and C are the ends. Side chains are listed from the residue outwards. Ends that are not written are not given here. * marks the point of attachment. C20 diacid = O=C(O)CCCCCCCCCCCCCCCCCCC(=O)*; γGlu = O=C(O)[C@H](CCC(=O)[*:2])N[*:1]; AEEA = NCCOCCOCC(=O)O

For assay [1], the target named is T1, human calcitonin receptor (human, UniProt P30988 25-474).
T1 construct: whole, on cells; also called hCTR; hCT
T1 sequence (looked up): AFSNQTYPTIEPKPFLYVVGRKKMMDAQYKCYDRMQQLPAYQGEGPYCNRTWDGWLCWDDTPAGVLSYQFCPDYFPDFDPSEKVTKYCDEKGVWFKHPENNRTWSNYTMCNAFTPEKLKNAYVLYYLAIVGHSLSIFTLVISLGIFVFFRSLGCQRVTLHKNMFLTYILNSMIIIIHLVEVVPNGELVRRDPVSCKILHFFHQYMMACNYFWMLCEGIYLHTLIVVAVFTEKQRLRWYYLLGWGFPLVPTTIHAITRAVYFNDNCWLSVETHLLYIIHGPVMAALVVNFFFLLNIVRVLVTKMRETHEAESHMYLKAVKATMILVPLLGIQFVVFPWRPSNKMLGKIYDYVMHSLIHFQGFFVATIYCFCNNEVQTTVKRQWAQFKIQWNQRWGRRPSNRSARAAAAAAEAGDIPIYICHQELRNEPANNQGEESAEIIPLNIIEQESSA
Nature of the assay: ratio of IC50 at human calcitonin receptor to IC50 at human amylin receptor (SPA competition assays). The protocol: The resulting pellet was resuspended, homogenized and centrifuged (20.000 rpm, 15 min) in a buffer containing 20 mM Na-HEPES and 0.1 mM EDTA (pH 7.4, buffer 2). The resulting pellet was resuspended in buffer 2 and protein concentration was measured (BCA protein Assay, Pierce). The homogenate was kept cold during the whole procedure. The membranes were kept at −80° C. until use. The assay was performed in a 384 well Optiplate (PerkinElmer) in a total volume of 40 ul. Membranes were mixed with SPA beads. Final concentration of membranes 35 ng/μL final and SPA beads was 0.05 mg/well. Test-compounds were dissolved in DMSO and further diluted in assay buffer (50 mM Hepes, pH 7.4, 1 mM CaCl2, 5 mM MgCl₂, 0.1% OA and 0.02% Tween20). […] The final mixture was incubated with shaking at 400 rpm for 120 min at 25° C. prior to centrifugation (1500 rpm, 10 min). Samples were analyzed on TopCounter™ (Packard). The IC₅₀ was calculated using (one site binding competition analysis) GraphPad Prism5 as a measure of receptor affinity.
Membranes were prepared in the following way; the cells were rinsed with PBS and incubated with Versene for approximately 5 min before harvesting. The cells were flushed with PBS and the cell-suspension was centrifuged for 5 min at 1000 rpm. Cells were homogenized (Ultrathurrax) in a buffer containing 20 mM Na-HEPES and 10 mM EDTA (pH 7.4) and centrifuged at 20.000 rpm for 15 min. The resulting pellet was resuspended, homogenized and centrifuged (20.000 rpm, 15 min) in a buffer containing 20 mM Na-HEPES and 0.1 mM EDTA (pH 7.4, buffer 2). The resulting pellet was resuspended in buffer 2 and protein concentration was measured (BCA protein Assay, Pierce). The homogenate was kept cold during the whole procedure. The membranes were kept at −80° C. until use. Assay was performed in a 384 well Optiplate (PerkinElmer) in a total volume of 40 ul. Membranes were mixed with SPA beads.

The target in assay [2] is T1, human calcitonin receptor. The experiment in a line: SPA radioligand competition (125I-calcitonin), membranes of BHK cells with human calcitonin receptor. On the procedure: Membranes were prepared in the following way; the cells were rinsed with PBS and incubated with Versene for approximately 5 min before harvesting. The cells were flushed with PBS and the cell-suspension was centrifuged for 5 min at 1000 rpm. Cells were homogenized (Ultrathurrax) in a buffer containing 20 mM Na-HEPES and 10 mM EDTA (pH 7.4) and centrifuged at 20.000 rpm for 15 min. The resulting pellet was resuspended, homogenized and centrifuged (20.000 rpm, 15 min) in a buffer containing 20 mM Na-HEPES and 0.1 mM EDTA (pH 7.4, buffer 2). The resulting pellet was resuspended in buffer 2 and protein concentration was measured (BCA protein Assay, Pierce). The homogenate was kept cold during the whole procedure. The membranes were kept at −80° C. until use. Assay was performed in a 384 well Optiplate (PerkinElmer) in a total volume of 40 ul. Membranes were mixed with SPA beads. Final concentration of membranes 35 ng/μL final and Final concentration of SPA beads was 0.05 mg/well. Test-compounds were dissolved in DMSO and further diluted in assay buffer (50 mM Hepes, pH 7.4, 1 mM CaCl2, 5 mM MgCl₂, 0.1% OA and 0.02% Tween20). […] The final mixture was incubated for 120 min with shaking at 400 rpm at 25° C. prior to centrifugation (1500 rpm, 10 min). Samples were analyzed on TopCounter™ (Packard). The […] was calculated using (one site binding competition analysis) GraphPad Prism5 as a measure of receptor affinity.

B1: N^ε1-[2-[2-[2-[[2-[2-[2-[[(4S)-4-carboxy-4-(19-carboxynonadecanoylamino)butanoyl]amino]ethoxy]ethoxy]acetyl]amino]ethoxy]ethoxy]acetyl]-[Arg17,Pro21,Pro27,Pro31 … (peptide)
peptide: K([AEEA-AEEA-γGlu-C20 diacid])CNTATCATQRLANFLRHSSPNFGAIPSSTPVGSNTY-NH2
modifications: disulfide 2-7; N-terminus assumed
SMILES: CC[C@H](C)[C@H](NC(=O)[C@H](C)NC(=O)CNC(=O)[C@H](Cc1ccccc1)NC(=O)[C@H](CC(N)=O)NC(=O)[C@@H]1CCCN1C(=O)[C@H](CO)NC(=O)[C@H](CO)NC(=O)[C@H](Cc1c[nH]cn1)NC(=O)[C@H](CCCNC(=N)N)NC(=O)[C@H](CC(C)C)NC(=O)[C@H](Cc1ccccc1)NC(=O)[C@H](CC(N)=O)NC(=O)[C@H](C)NC(=O)[C@H](CC(C)C)NC(=O)[C@H](CCCNC(=N)N)NC(=O)[C@H](CCC(N)=O)NC(=O)[C@@H](NC(=O)[C@H](C)NC(=O)[C@@H]1CSSC[C@H](NC(=O)[C@@H](N)CCCCNC(=O)COCCOCCNC(=O)COCCOCCNC(=O)CC[C@H](NC(=O)CCCCCCCCCCCCCCCCCCC(=O)O)C(=O)O)C(=O)N[C@@H](CC(N)=O)C(=O)N[C@@H]([C@@H](C)O)C(=O)N[C@@H](C)C(=O)N[C@@H]([C@@H](C)O)C(=O)N1)[C@@H](C)O)C(=O)N1CCC[C@H]1C(=O)N[C@@H](CO)C(=O)N[C@@H](CO)C(=O)N[C@H](C(=O)N1CCC[C@H]1C(=O)N[C@H](C(=O)NCC(=O)N[C@@H](CO)C(=O)N[C@@H](CC(N)=O)C(=O)N[C@H](C(=O)N[C@@H](Cc1ccc(O)cc1)C(N)=O)[C@@H](C)O)C(C)C)[C@@H](C)O
notes: also called compound 96
A word on the IC50: it is the midpoint of a concentration-inhibition curve. Consider B1, for which, in assay [1], the “Ratio hCT/hAmylin binding” value came out at 79.6. For the same molecule, the IC50 in assay [2] is 13.2 nM.

B2: N^ε1-[2-[2-[2-[[(4S)-4-carboxy-4-(19-carboxynonadecanoylamino)butanoyl]amino]ethoxy]ethoxy]acetyl]-[Arg14,Arg17,Pro21,Pro27]-h-amylin (peptide)
peptide: K([AEEA-γGlu-C20 diacid])CNTATCATQRLARFLRHSSPNFGAIPSSTNVGSNTY-NH2
modifications: disulfide 2-7; N-terminus assumed
SMILES: CC[C@H](C)[C@H](NC(=O)[C@H](C)NC(=O)CNC(=O)[C@H](Cc1ccccc1)NC(=O)[C@H](CC(N)=O)NC(=O)[C@@H]1CCCN1C(=O)[C@H](CO)NC(=O)[C@H](CO)NC(=O)[C@H](Cc1c[nH]cn1)NC(=O)[C@H](CCCNC(=N)N)NC(=O)[C@H](CC(C)C)NC(=O)[C@H](Cc1ccccc1)NC(=O)[C@H](CCCNC(=N)N)NC(=O)[C@H](C)NC(=O)[C@H](CC(C)C)NC(=O)[C@H](CCCNC(=N)N)NC(=O)[C@H](CCC(N)=O)NC(=O)[C@@H](NC(=O)[C@H](C)NC(=O)[C@@H]1CSSC[C@H](NC(=O)[C@@H](N)CCCCNC(=O)COCCOCCNC(=O)CC[C@H](NC(=O)CCCCCCCCCCCCCCCCCCC(=O)O)C(=O)O)C(=O)N[C@@H](CC(N)=O)C(=O)N[C@@H]([C@@H](C)O)C(=O)N[C@@H](C)C(=O)N[C@@H]([C@@H](C)O)C(=O)N1)[C@@H](C)O)C(=O)N1CCC[C@H]1C(=O)N[C@@H](CO)C(=O)N[C@@H](CO)C(=O)N[C@H](C(=O)N[C@@H](CC(N)=O)C(=O)N[C@H](C(=O)NCC(=O)N[C@@H](CO)C(=O)N[C@@H](CC(N)=O)C(=O)N[C@H](C(=O)N[C@@H](Cc1ccc(O)cc1)C(N)=O)[C@@H](C)O)C(C)C)[C@@H](C)O
notes: also called compound 82
Take B2: in assay [1], the “Ratio hCT/hAmylin binding” value came to 140. Further, in assay [2], the IC50 was 88.8 nM.

B3: N^ε1-[2-[2-[2-[[2-[2-[2-[[(4S)-4-carboxy-4-(19-carboxynonadecanoylamino)butanoyl]amino]ethoxy]ethoxy]acetyl]amino]ethoxy]ethoxy]acetyl]-[Arg17,Pro21,Pro27,Pro34 … (peptide)
peptide: K([AEEA-AEEA-γGlu-C20 diacid])CNTATCATQRLANFLRHSSPNFGAIPSSTNVGPNTY-NH2
modifications: disulfide 2-7; N-terminus assumed
SMILES: CC[C@H](C)[C@H](NC(=O)[C@H](C)NC(=O)CNC(=O)[C@H](Cc1ccccc1)NC(=O)[C@H](CC(N)=O)NC(=O)[C@@H]1CCCN1C(=O)[C@H](CO)NC(=O)[C@H](CO)NC(=O)[C@H](Cc1c[nH]cn1)NC(=O)[C@H](CCCNC(=N)N)NC(=O)[C@H](CC(C)C)NC(=O)[C@H](Cc1ccccc1)NC(=O)[C@H](CC(N)=O)NC(=O)[C@H](C)NC(=O)[C@H](CC(C)C)NC(=O)[C@H](CCCNC(=N)N)NC(=O)[C@H](CCC(N)=O)NC(=O)[C@@H](NC(=O)[C@H](C)NC(=O)[C@@H]1CSSC[C@H](NC(=O)[C@@H](N)CCCCNC(=O)COCCOCCNC(=O)COCCOCCNC(=O)CC[C@H](NC(=O)CCCCCCCCCCCCCCCCCCC(=O)O)C(=O)O)C(=O)N[C@@H](CC(N)=O)C(=O)N[C@@H]([C@@H](C)O)C(=O)N[C@@H](C)C(=O)N[C@@H]([C@@H](C)O)C(=O)N1)[C@@H](C)O)C(=O)N1CCC[C@H]1C(=O)N[C@@H](CO)C(=O)N[C@@H](CO)C(=O)N[C@H](C(=O)N[C@@H](CC(N)=O)C(=O)N[C@H](C(=O)NCC(=O)N1CCC[C@H]1C(=O)N[C@@H](CC(N)=O)C(=O)N[C@H](C(=O)N[C@@H](Cc1ccc(O)cc1)C(N)=O)[C@@H](C)O)C(C)C)[C@@H](C)O
notes: also called compound 98
Consider B3, for which, in assay [1], the “Ratio hCT/hAmylin binding” value was found to be 74.1. For the same molecule, the IC50 in assay [2] is 6.74 nM.

B4: N^ε1-[2-[2-[2-[[(4S)-4-carboxy-4-(19-carboxynonadecanoylamino)butanoyl]amino]ethoxy]ethoxy]acetyl]-[Ala14,Arg17,Pro21,Pro27,Pro31]-h-amylin (peptide)
peptide: K([AEEA-γGlu-C20 diacid])CNTATCATQRLAAFLRHSSPNFGAIPSSTPVGSNTY-NH2
modifications: disulfide 2-7; N-terminus assumed
SMILES: CC[C@H](C)[C@H](NC(=O)[C@H](C)NC(=O)CNC(=O)[C@H](Cc1ccccc1)NC(=O)[C@H](CC(N)=O)NC(=O)[C@@H]1CCCN1C(=O)[C@H](CO)NC(=O)[C@H](CO)NC(=O)[C@H](Cc1c[nH]cn1)NC(=O)[C@H](CCCNC(=N)N)NC(=O)[C@H](CC(C)C)NC(=O)[C@H](Cc1ccccc1)NC(=O)[C@H](C)NC(=O)[C@H](C)NC(=O)[C@H](CC(C)C)NC(=O)[C@H](CCCNC(=N)N)NC(=O)[C@H](CCC(N)=O)NC(=O)[C@@H](NC(=O)[C@H](C)NC(=O)[C@@H]1CSSC[C@H](NC(=O)[C@@H](N)CCCCNC(=O)COCCOCCNC(=O)CC[C@H](NC(=O)CCCCCCCCCCCCCCCCCCC(=O)O)C(=O)O)C(=O)N[C@@H](CC(N)=O)C(=O)N[C@@H]([C@@H](C)O)C(=O)N[C@@H](C)C(=O)N[C@@H]([C@@H](C)O)C(=O)N1)[C@@H](C)O)C(=O)N1CCC[C@H]1C(=O)N[C@@H](CO)C(=O)N[C@@H](CO)C(=O)N[C@H](C(=O)N1CCC[C@H]1C(=O)N[C@H](C(=O)NCC(=O)N[C@@H](CO)C(=O)N[C@@H](CC(N)=O)C(=O)N[C@H](C(=O)N[C@@H](Cc1ccc(O)cc1)C(N)=O)[C@@H](C)O)C(C)C)[C@@H](C)O
notes: also called compound 72
As to B4, the “Ratio hCT/hAmylin binding” value in assay [1] came out at 247. In assay [2], the concentration for half-maximal inhibition (IC50) is 42.4 nM.
